Measured values from publication PMC10398351, “Structural and molecular insight into antibody recognition of dynamic neoepitopes in membrane tethered MUC1 of pancreatic cancer cells and secreted exosomes” (RSC Chemical Biology, 2023).
Entries after “also recorded” stand apart in the source; their conditions may differ.

How the values were obtained:
[1] = target: MUC1 bearing ST antigen at the immunodominant DTR motif; test: SPR affinity of SN-131 with MUC1 bearing ST antigen; assay type: binding; details: SN-131 with MUC1 bearing ST antigen at the immunodominant DTR motif; abstract
Description: The binding affinity of SN-131 Fab with MUC1 TRD models was measured by using a Biacore 2000 surface plasmon resonance (SPR) instrument (GE Healthcare). Synthetic MUC1 TRD models 2–4 with a C-terminal cysteine residue were immobilized on a CM5 chip (GE Healthcare) by a standard protocol of the maleimide coupling. The SN-131 Fab was injected over the surface of the immobilized MUC1 TRD models 2–4 and three kinetic parameters, the association rate constant (kon), the dissociation rate constant (koff), and the equilibrium dissociation constant (KD) were obtained with BIAevaluation 4.1 software (GE Healthcare) using a bivalent binding model. Isothermal titration calorimetry (ITC) experiments were also carried out to determine the thermodynamic parameters of the interaction between SN-131 and non-glycosylated-/Tn-MUC1 TRDs.7 All experiments and analyses were performed by using nano ITC (TA Instrument) and Nanoanalyze based on as independent model.

MUC1 TRD [2] = test: Epitope mapping of SN-131 on glycopeptide microarray; assay type: binding; details: SN-131 1 µg/mL, 2 h at room temperature, Cy3 labeled anti-mouse IgG
Description: 100 mM solutions of the synthetic glycopeptides capped with ketone-linker at the N-terminus (5–9) dissolved in 25 mM sodium acetate buffer (pH 5.0) containing 0.005% Tween-20 (w/v) were robotically printed on plastic slides coated with a copolymer carrying aminooxy-/phosphorylcholine functional groups according to the protocol reported previously.[20,22,24] Detailed conditions for the binding assay are described in the ESI. ^† […]
as Additional Data in Supporting Information. Compounds 3 , 5, and 6 were synthesized previously5,7,8 and available for the present study.
Glycopeptide microarray. 100 mM solutions of the synthetic glycopeptides capped with ketone-linker at N -terminus (5~9) dissolved in 25 mM sodium acetate buffer (pH 5.0) containing 0.005% Tween- 20 (w/v) were robotically printed on plastic slides coated with a copolymer carrying aminooxy-/phosphorylcholine functional groups according to the protocol reported previ ousl y.5,7-9 For the epitope analysis of SN-131, antibody solutions (1 µg/mL) were added to each well of the slides. After incubation for 2 h at room temperature, the slides were rinsed and added with Cy3 labeled anti-mouse IgG polyclonal antibody (1 µg/mL). After washing, fluorescence of the wells were measured using a GlycoStation 1200 system and analysed with the ArrayVision […]
Anti-MU C1 mA b (SN -131). […]

MUC1 TRD [3] = details: cited from earlier work
From the text: By using a robust synthetic glycopeptide library,[21–24] we have established a straightforward approach to antibodies recognizing cancer-relevant glycopeptidic epitopes modified with aberrant O-glycans, namely “dynamic neoepitopes”, found in the MUC1 TRD (Fig. 2a).[19,20] […] We considered that SN-131 is a highly potential anti-MUC1 antibody because this antibody binds specifically MUC1 TRD having core 1 type O-glycans overexpressed in many cancers including pancreatic cancer but not core 2 type O-glycans found in normal cells. However, the structural and molecular basis of the epitope recognition by SN-131 remain to be fully understood. We needed to investi ...

PANC-1 cells = test: Live cell imaging of Alexa488-conjugated SN-131 on PANC-1 cells; assay type: cell-based, human; details: Alexa 488 conjugated SN-131 10 μg mL−1, 2 h at 37 °C
Description: PANC-1 cells (5 × 10^4 cells per well) were cultured with 10% FBS and 2 mM L-glutamine on an 8-well imaging plate (Fischer Scientific) for 48 h in 5% CO2 at 37 °C. Then, Alexa 488 conjugated SN-131 (10 μg mL^−1), 10 μM MUC1-5ST (8), or MAG (5 μg mL^−1) dissolved in Opti-MEM medium (gibco) was co-incubated with PANC-1 cells for 2 h in 5% CO2 at 37 °C. Cells were washed with Opti-MEM and stained with Hoechst 33342 (2.5 ng mL^−1 in Opti-MEM) for 30 min. […] The pictures were imaged with 60xlens and the following filter set (Blue: #OP-66843 Excitation 360/40, Emission 460/50, Green: #OP-66836, Excitation 470/40, Emission 535/50, Red: #OP-66837, Excitation 540/25, Emission […]). Imaging pictures were analysed by BZ-II Analyzer software (Keyence, Osaka).

B1: SN-131: anti-MUC1 mAb (clone 1B2, IgG2a) binding MUC1 TRD with Tn, T and ST antigens at the DTR motif (antibody, V domains shown)
VH: QVQLQQSGAELARPGASVKLSCKASGYTFTNYGLSWVKQRTGQGLEWIGENHPGSGIIYHNEKFRGKATLTADKSSSTAYVQLSSLTSEDSAVYFCARSSGTRGFAYWGQGTLVTVSA
VL: DVLMTQTPLSLPVSLGDQASISCRSSQSIVHSNGNTYLEWYLQKPGQSPKLLIYKVSNRFSGVPDRFSGSGSGTDFTLKISRVEAEDLGVYYCFQGSHGPWTFGGGTKLEIK
[1]
  Kd: 1.58 nM
MUC1 TRD [2]
  binding of SN-131 to MUC1 TRD glycoforms (epitope mapping, in words): binds MUC1 TRD with Tn, T, and ST antigens attached to the immunodominant DTR motif; also recorded: did not bind to non-glycosylated MUC1 TRD
MUC1 TRD [3]
  glycoform specificity of binding to MUC1 TRD: does not bind to MUC1 TRD when the threonine residue of this immunodominant region is modified with STn, dST, or core 2-type mature complex O-glycan structures
PANC-1 cells
  binding to PANC-1 cell surface MUC1 TRD: binds strongly
